Measured values as given in paper PMC5268738 (2017).
Blank lines part the entries; values can stand above or below the binder they belong to. Square brackets hold non-standard residues; d marks the D form. Ends that are not written are not given here. pT = C[C@@H](OP(=O)(O)O)[C@H](N)C(=O)O; pS = N[C@@H](COP(=O)(O)O)C(=O)O

Target: T1, human Mad1^CTD (human, UniProt Q9Y6D9 597-718)
T1 chain: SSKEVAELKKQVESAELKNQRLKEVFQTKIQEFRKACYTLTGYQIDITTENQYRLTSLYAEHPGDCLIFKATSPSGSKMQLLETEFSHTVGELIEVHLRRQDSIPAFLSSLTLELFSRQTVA
Test: ITC

Kd: 3.1 µM
B1: human Bub1 CM phospho-peptide pS459-pT461 (peptide)
peptide: CKVQP[pS]P[pT]VHTKEALGFIMNMFQA

Kd: 15.7 µM
B2: human Bub1 CM phospho-peptide pT461 (peptide)
peptide: CKVQPSP[pT]VHTKEALGFIMNMFQA
